Data: patent publication US7026456
Each block holds one binder with its values, some of them ahead of it.

Biological target: natural human IL-12 (p75 heterodimer), purified from stimulated human blood cultures (human) (UniProt P29459)
Experiment: cell-based or functional assay

Sequence of UniProt P29459 (P29459 23-219, chain 1 of 2): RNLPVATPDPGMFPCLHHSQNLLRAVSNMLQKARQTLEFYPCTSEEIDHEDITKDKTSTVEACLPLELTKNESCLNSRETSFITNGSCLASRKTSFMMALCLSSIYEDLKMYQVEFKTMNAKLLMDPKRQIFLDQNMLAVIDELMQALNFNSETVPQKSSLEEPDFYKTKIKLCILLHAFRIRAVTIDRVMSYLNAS
Sequence of UniProt P29459 (P29460 23-328, chain 2 of 2, further chain): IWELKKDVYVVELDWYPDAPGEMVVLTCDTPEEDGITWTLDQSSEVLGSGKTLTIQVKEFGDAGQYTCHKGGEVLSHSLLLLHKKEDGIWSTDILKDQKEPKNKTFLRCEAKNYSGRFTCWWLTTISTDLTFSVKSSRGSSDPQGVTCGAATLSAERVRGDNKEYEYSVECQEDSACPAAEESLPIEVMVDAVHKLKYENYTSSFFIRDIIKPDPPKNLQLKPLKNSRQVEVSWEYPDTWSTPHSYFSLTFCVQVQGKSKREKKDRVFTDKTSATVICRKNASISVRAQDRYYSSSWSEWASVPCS

IC50 of 0.25 ng/ml IL-12-stimulated proliferation of PHA-activated human lymphoblasts: 0.01 µg/mL | IC50 of 0.25 ng/ml human IL-12-stimulated IFN-γ production by PHA-activated human lymphoblasts: 0.02 µg/mL | inhibition of IL-12-stimulated IFN-γ production at 0.5 µg/ml antibody: > 90% | inhibition of human IL-12 stimulated PHA activated lymphoblast proliferation: > 90%
B1: monoclonal antibody 20E11, produced by hybridoma HIL-12F3-20E11 (ATCC HB-12448) (antibody, part only; not given: light chain and constant regions, V domains shown, part only)
VH: EESGPSLVKPSQTLSLTCSVTGDSITSGYWNWIRKFPDNTLEYMGYISYSGSTYYNPSLRSRISITRDTSKNQYSMQLNSVTTEDTATYYCARSSDAMDYWG

IC50 of 0.25 ng/ml IL-12-stimulated proliferation of PHA-activated human lymphoblasts: 0.01 µg/mL | IC50 of 0.25 ng/ml human IL-12-stimulated IFN-γ production by PHA-activated human lymphoblasts: 0.01 µg/mL | inhibition of IL-12-stimulated IFN-γ production at 0.5 µg/ml antibody: > 90% | inhibition of human IL-12 stimulated PHA activated lymphoblast proliferation: > 90%
B2: monoclonal antibody 16G2, produced by hybridoma HIL-12F3-16G2 (ATCC HB-12449) (antibody, part only; not given: light chain and constant regions, V domains shown, part only)
VH: LEESGPSLVKPSQTLSLTCSVTGDSITSGYWNWIRKFPGNKFEYMGFISYSGSTYNNPSLKNRVSITRDTSNNQYYLQLSSVTTEDSATYYCARSSDALDYWGAGTT
